T1: MET on EBC-1 cells (human, UniProt P08581 25-1390)
T1 chain: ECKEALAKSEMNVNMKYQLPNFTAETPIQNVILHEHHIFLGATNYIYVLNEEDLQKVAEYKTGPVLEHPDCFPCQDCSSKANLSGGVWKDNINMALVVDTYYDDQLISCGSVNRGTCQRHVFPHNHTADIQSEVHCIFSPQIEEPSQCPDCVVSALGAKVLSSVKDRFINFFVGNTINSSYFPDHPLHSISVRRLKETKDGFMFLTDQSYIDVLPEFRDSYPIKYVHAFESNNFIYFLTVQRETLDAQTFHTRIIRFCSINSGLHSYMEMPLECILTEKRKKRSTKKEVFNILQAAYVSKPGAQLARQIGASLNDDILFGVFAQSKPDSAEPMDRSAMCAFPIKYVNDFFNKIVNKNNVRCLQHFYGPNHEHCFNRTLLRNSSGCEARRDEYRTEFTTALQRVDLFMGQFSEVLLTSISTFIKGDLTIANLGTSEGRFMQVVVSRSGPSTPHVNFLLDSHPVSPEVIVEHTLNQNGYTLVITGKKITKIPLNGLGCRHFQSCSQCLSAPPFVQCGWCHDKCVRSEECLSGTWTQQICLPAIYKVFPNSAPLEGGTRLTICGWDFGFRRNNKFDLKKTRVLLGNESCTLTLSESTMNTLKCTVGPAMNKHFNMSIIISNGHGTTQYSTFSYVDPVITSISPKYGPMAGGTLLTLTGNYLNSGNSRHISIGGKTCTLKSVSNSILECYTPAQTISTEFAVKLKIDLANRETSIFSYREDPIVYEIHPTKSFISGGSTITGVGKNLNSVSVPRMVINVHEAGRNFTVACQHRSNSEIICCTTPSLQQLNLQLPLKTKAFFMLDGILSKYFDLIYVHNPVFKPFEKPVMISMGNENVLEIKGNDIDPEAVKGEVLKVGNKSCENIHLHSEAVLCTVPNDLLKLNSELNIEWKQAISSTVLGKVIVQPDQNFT

B1: H4H13306P2 (antibody, V domains shown)
VH: EVQLVESGGGLVQPGTSLRLSCAASGFTFDDYAMHWVRQAPGKGLEWVSGITWNSYNIDYADSVKGRFTISRDNAKNSLYLQMNSLRAEDTALYYCAKDDDYSNYVYFDYWGQGTLVTVSS
VL: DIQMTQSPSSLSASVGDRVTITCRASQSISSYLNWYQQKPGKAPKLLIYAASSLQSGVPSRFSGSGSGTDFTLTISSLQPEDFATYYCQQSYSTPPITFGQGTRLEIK
B2: H4H14639D Bispecific Antibody (bispecific antibody, V domains shown)
VH 1: EVQLVESGGGLVQPGTSLRLSCAASGFTFDDYAMHWVRQAPGKGLEWVSGITWNSYNIDYADSVKGRFTISRDNAKNSLYLQMNSLRAEDTALYYCAKDDDYSNYVYFDYWGQGTLVTVSS
VH 2: EVQLVESGGGLVQPGGSLRLSCAASGFIVTTNYMTWLRQAPGKGLEWVSLIYSSGHTYYADSVKGRFTISRHNSKNTLYLQMDSLRAEDTAVYYCASAFAADVFDIWGQGTMVTVSS
VL: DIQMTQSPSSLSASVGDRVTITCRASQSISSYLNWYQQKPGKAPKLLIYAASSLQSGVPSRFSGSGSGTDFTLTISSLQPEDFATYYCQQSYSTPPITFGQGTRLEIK
B3: H4H13312P2 (antibody, V domains shown)
VH: EVQLVESGGGLVQPGGSLRLSCAASGFIVTTNYMTWLRQAPGKGLEWVSLIYSSGHTYYADSVKGRFTISRHNSKNTLYLQMDSLRAEDTAVYYCASAFAADVFDIWGQGTMVTVSS
VL: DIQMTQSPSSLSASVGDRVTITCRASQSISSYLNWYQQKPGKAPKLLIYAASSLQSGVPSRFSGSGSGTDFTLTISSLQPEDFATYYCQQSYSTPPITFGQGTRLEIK

Tests used:
Test in all cases: cell-based or functional assay
[1] = target: T2, MET on NCI-H596 cells (MET exon14 skip mutation) (human, UniProt P08581 25-1390)
[2] = target: T2, MET on NCI-H596 cells (MET exon14 skip …); remark: listed apart in the source
MET on EBC-1 cells = target: T1, MET on EBC-1 cells

| Binder | Relative MET Level (immunoblot, 18 hours, 5 µg/ml, NCI-H596) [1] | Relative Cell Growth (n = 3), NCI-H596 in soft agar, 5 µg/ml, two weeks [2] | Relative Cell Growth (n = 3), EBC-1, 0.1 µg/mL, 5 days (MET on EBC-1 cells) | Relative Cell Growth (n = 3), EBC-1, 1 µg/mL, 5 days (MET on EBC-1 cells) |
| --- | --- | --- | --- | --- |
| B1 | 0.5 relative to hFc control | 2.96 relative to control (no treatment) |  |  |
| B2 | 0.24 relative to hFc control | 1.07 relative to control (no treatment) | 0.397 relative to control | 0.462 relative to control |
| B3 | 0.35 relative to hFc control | 1.69 relative to control (no treatment) |  |  |
